Measurements taken from the DeepSol protein solubility set.

Test: soluble on expression in E. coli; label from the status in PepcDB or PDB records

Sequence | soluble on expression in E. coli
MSLGLGSSNRQTDDWNAKLYDERHRFVSAYGEDLIQWLAPKEGECVLDLGCGTGDLTEQIHQLGSRVIGVDVSESMIEQAKGKFPHLDFQVAEATDLSFSEKFDAIFSNAVLHWIKDAEEALTVIYRSLKPGGRFVAEFGGKGNVETIVNTLADTMSQADSRWSKEELPWFFPSIGQYTSLMEQVGFRVTHALHFNRPTLLEDGDGIRHWLAMFAESVLEGKSETERAEIVRFVEAEVKDALFDGTNWWADYKRIRVVGMKQEGHHHHHH | not soluble
MSLKIKDIKVIFTEPDNIRLIIVKILTDQDGLYGVGCATFTQRPNPVKYAIEDYLKPFLIGKEVSNIEDIWQSSYVSSYWRNGPVLNNALSGVDQALWDIKGKMANMPLYDLFGGKTREAAAVYVHSSGDSNEEVGDKMQAFIEQGFHHIRVQVSTPGYSTYGNKSAKAGDKTLNNNDPKLGPIPVTKRVKDYSDGKLYAHPGGVFEPKPYLRSALSLFEYIRDRFGYGIEILHDVHERIPPILGVWFAKEVEKYQLFFLEDLFSPEDNEYFSMVRAQSSTPIAMGELYSSPHEIIPMIKNRLIDFIRIHISDIGGLTPAKKIAAMGEIFGVRTAWHGPGDTSPIGHAANLALDLSCYNFGIQEYSIFGENTKEVFPGCPIVKKGMMWSNDKPGLGIDIDEKLAKKFPFKEREYGGAWDTVRRADGSMVKEGHHHHHH | not soluble
MAKNSRSKTQFENMKYEIAKEVGVNLKQGYNGDLTAREAGKIGGNIVKKVFQSYTGNSYPSERLGDTSR | not soluble
MGVTLAKGGNVSLDKQAPNLTAVAVGLGWDARSTTGHEFDLDASALATGENKKVLSDQHFVFYNNLRSPDGSIQHEGDNLTGEGDGDDEVINVDLKAVPPNVTNIFFPVSIHEAELRGQNFGQVTNAFIRVVDRSTGNELVRYDLSEDASSETAMTFGELYRHNGEWKFRAIGQGYASGLSGIARDYGVNI | not soluble
MASRRKRRKVNEESEIPCSPVVIFAHGAGAPSSSDWMIRWKEMLKKTLEAVEVVTFDYPYLADGKKRVAPKAEKLIEFHLNVVKETAAKFPGHPLILVGKSMGSRVSCMVSAVNEDVTVSAVICLGYPLKGAKGAIRDETLLEMGVPVMFVQGSKDPMCPLNKLEAVCNKMKAVTEVHVIDGGDHSFKIGKKHLETKELTQEEVEDVAMKAIAAFVSKSLAQSS | soluble
MSLTTIPIWDVQQTPELNISAADYSLLTDLYQLTMAACYTGEGVEQRRASFELFVRRSPEGFGYLIAMGLAQALEYLEKLRFSPEQIAALQATGIFAHAGEGFWSLLAEGRFTGDVWAVPEGTAVFANEPLLRVEAPLWQAQLVETYLLNTLNYQTLVATRAARLRDIAGEQATLLEFGTRRAFSPQASLWAARAALAGGLDATSNVLAALQLGQQPSGTMAHALVMALSAMEGSEEQAFSAFHRYFPGAPLLIDTYDTIAAAQHLAEKVNTGKMELSGVRLDSGDLVSLSKQVRSLLPDVSIFASGDLDEWEIAKLQAAGAEIDGYGLGTKLVTGSPVNGVYKLVEIDDIPVMKKSSGKTTYPGRKQIFRSFGDGQVQADRLGLITDTPLITEKPLLELVVKEGQRLQPRETLSAIRQRTAASVASLPEQTRRLDNPVPVPIQISTALQDLTEVTLQRLNEGHHHHHH | not soluble
AHHHHHHGSFPHEEKLIREKLGREPNDLEKAMLEVMWSEHVSYKSSRKWLKLLPTKNEHVILGPGEDAGIIKFDDKTWIVIGIESHNHPSAVEPYGGAATGVGGIVRDILCMGARPIALLDPIRFGPLEKEKNRYLFEYVVKGIADYGNRIGVPTVGGETEFDESLDNYTLVNVACIGIMRPEHLVHSYVTEPGLKLVIVGNRTGRDGIHGVTFASEELGENAEEEDRSAVQIPDPFTEKLLIEATLEAVYTGKVKALKDLGGGGLTCAASEMVGKRGFGAIIYADKVPLREPGMTPLEVMISESQERMLFAIKPEDVEELGKIFEKYELEWSVVGEVIEEPKFIVYWKGRKVAELPIELLTNVPTIEWPMKEYRIEEDVETPQISLEEAFEKVWRSPNVISKRWVWEQYDHEVQGRTVIKPGFDSAVLKINEEYGLAITADGNPTHCYLNPYHGAMGVVVEVVRNLVSVGAKPLALVDNLNFASPERPEVYWSFVETIKGLADAAKAFGLAYVSGNVSFYNEVVNKPVKPTPVVAGVGKVKLEKIPRGPREGDLIGLIGETRKELGGSELYRVLGVSKGIAPRVDLEVEKRNAESVLKLIEEGLVSFVHDVSRGGVAVALAELSTWFNVGIKSEITTSLLPLDFAFSESHGRYIVTFPEENLEAVKKIAPITLLGRIGGEKFELKINGEKVSKTVKWLSDVHWNELYRIMD | not soluble
GPGSMSSADLFKKFTLQNVAQIANSSHKEQMQVRHDLAEQYPQLADFWEDIMPRKSDIMLVRCHDQVHCVTLVSAQPEVLFFNHHNGPYIPHLKLLHKYPFILQRHQVDVGACKHVLSGANIMCPGLTSKGGYITPEIPAGQLVAVYVETKEHAVAIGKTLMSSEEIKKVNSGPCIENIHHVGDGLWMNRVLSASHIGAR | soluble
MGSDKIHHHHHHMSDIHKKIKKKQFAPLYLLYGTEAFFINETIKLITTEALEEEDREFNVVTYDLEEAYLEDVVEDARTLPFFGERKVLLIKSPLFLTSQKEKLEQNIKILEEYIGEPSPFSILVFVAPYEKLDERKKITKLLKKTADVVEANAMQVQDVQKWIVARADEVHVHIDHAAVSLLLELVGSNVTMLAKEMDKLTLYVGMGGDITPKLVAELVPKSVEQNVFALTEKVVKKDIAGAMQILDGLFTQQEEPIKLLALLVSQFRLLHQVKELQQRGYGQNQIASHIGVHPYRVKLAMNQTKFFSFEELKKVIMELAEADYSMKTGKMDKKLVLEFFLMRLNHM | not soluble
GSEDFTFDGTKRLSVNYVKGILQPTDTCDIWDKIWNFQAKPDDLLISTYPKAGTTWTQEIVELIQNEGDVEKSKRAPTHQRFPFLEMKIPSLGSGLEQAHAMPSPRILKTHLPFHLLPPSLLEKNCKIIYVARNPKDNMVSYYHFQRMNKALPAPGTWEEYFETFLAGKVCWGSWHEHVKGWWEAKDKHRILYLFYEDMKKNPKHEIQKLAEFIGKKLDDKVLDKIVHYTSFDVMKQNPMANYSSIPAEIMDHSISPFMRKGAVGDWKKHFTVAQNERFDEDYKKKMTDTRLTFHFQF | soluble
